Reference: publication PMC11067348

Biological target: T1, pM-Gal4DBD-AR (amino acids 624-919), P10275
T1 chain: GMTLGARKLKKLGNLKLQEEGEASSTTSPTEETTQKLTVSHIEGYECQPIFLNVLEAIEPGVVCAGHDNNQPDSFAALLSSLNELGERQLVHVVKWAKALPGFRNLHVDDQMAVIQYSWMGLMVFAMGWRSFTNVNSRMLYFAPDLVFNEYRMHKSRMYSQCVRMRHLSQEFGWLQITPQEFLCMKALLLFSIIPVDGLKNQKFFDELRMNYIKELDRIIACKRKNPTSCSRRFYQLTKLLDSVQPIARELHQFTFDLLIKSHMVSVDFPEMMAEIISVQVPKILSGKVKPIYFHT
Test: mammalian two-hybrid
Settings: chain shown with the change, HEK293T cells, read off a plot

B1: pVP16-AR111Q (amino acids 12-660), P10275 F23A (protein)
chain: PRPPSKTYRGAAQNLFQSVREVIQNPGPRHPEAASAAPPGASLLLLQQQQQQQQQQQQQQQQQQQQQQQETSPRQQQQQQGEDGSPQAHRRGPTGYLVLDEEQQPSQPQSALECHPERGCVPEPGAAVAASKGLPQQLPAPPDEDDSAAPSTLSLLGPTFPGLSSCSADLKDILSEASTMQLLQQQQQEAVSEGSSSGRAREASGAPTSSKDNYLGGTSTISDNAKELCKAVSVSMGLGVEALEHLSPGEQLRGDCMYAPLLGVPPAVRPTPCAPLAECKGSLLDDSAGKSTEDTAEYSPFKGGYTKGLEGESLGCSGSAAAGSSGTLELPSTLSLYKSGALDEAAAYQSRDYYNFPLALAGPPPPPPPPHPHARIKLENPLDYGSAWAAAAAQCRYGDLASLHGAGAAGPGSGSPSAAASSSWHTLFTAEEGQLYGPCGGGGGGGGGGGGGGGGGGGGGGGEAGAVAPYGYTRPPQGLAGQESDFTAPDVWYPGGMVSRVPYPSPTCVKSEMGPWMDSYSGPYGDMRLETARDHVLPIDYYFPPQKTCLICGDEASGCHYGALTCGSCKVFFKRAAEGKQKYLCASRNDCTIDKFRRKNCPSCRLRKCYEAGMTLGARKLKKLGNLKLQEEGEASSTTSPTEETTQKL
DHT treated, parent: est. 2.4
  response (Relative Luciferase Units): 0.35
DHT versus EtOH, parent: est. 2.2
  other: Average Fold Change (DHT/EtOH treated): 0.9
